# Reference: patent publication US20260124223A1, “CANCER IMMUNOTHERAPIES” (Northwestern University, priority 2022, published 2026)
# Values joined by “and” are separate entries in the source; they are usually repeats but may differ in a detail not shown here. Identical values can stand only once.
# Tests used:
# [1] = mouse, in vivo
# Description: C57BL/6 mice were employed for sonication experiments in which they were anesthetized with ketamine/xylazine cocktail intraperitoneally (ketamine 100 mg/kg, xylazine 10 mg/kg).
# Determination of the concentration of nivolumab in brain from C57BL/6 mice. Non-tumor bearing C57BL/6 mice were used for this experiment. […] Nivolumab ELISA kit (ab237651, Abcam) was employed to determine nivolumab concentrations in the brain and blood. Mice were anesthetized with ketamine/xylazine cocktail and treated with artificial tears once fully anesthetized. Next, mice were treated with nivolumab through retro-orbital route. The dose used for mice was calculated based on allometric scaling which considers the animal equivalent dose based on body surface area converted from the human dose of 3 mg/kg of nivolumab (Nair, A. B. et al., J Basic Clin Pharm 7, 27-31 (2016)). After treatment with nivolumab, mice were placed in the US transducer holder for sonication as described above. Intravenous NaFI (Sigma-Aldrich) previously dissolved in PBS was administered immediately after sonication at a dose of 20 mg/kg in 100 μL. 1 and 4 hours after sonication, mice were euthanized using a CO2 chamber and brains were harvested and placed in PBS. […] Absorbance of samples (set to 450 nm) was read in Cytation 5 multi-mode reader (Biotek). […]
# [2] = Pembrolizumab concentration in plasma, glioma and peritumoral brain of GBM patients (ELISA); format: in vivo, human
# Description: Patients received additional treatment cycles with sonications in an outpatient setting in which the US device was activated by percutaneous access with a single-use transdermal needle concomitantly with the injection of 10 μL/kg of IV microbubbles (DEFINITY, Lantheus, Billerica, USA) and 200 mg of pembrolizumab and 30 mg of liposomal DOX.
# Determination of the concentration of pembrolizumab in human glioma and peritumoral brain tissue Two GBM patients undergoing surgery for resection of tumor with implantation of the Sonocloud-9 US device were studied for this analysis. Pembrolizumab ELISA kit (ab237652, Abcam) was employed to determine pembrolizumab concentrations. After surgical resection, all samples were weighed. […] The rest of the experiment was done following manufacturer's kit protocol.
# [3] = tested on: brain metastases from melanoma; experiment: Tumor volume in a melanoma brain metastasis patient, SonoCloud-1 (NCT04021420); format: in vivo, human
# Source text: Analysis of SoniMel tumor volume of a brain metastatic patient. This patient was part of an ongoing clinical trial (NCT04021420) evaluating the combination of the immune checkpoint antibodies, ipilimumab and nivolumab, with BBB disruption employing the SC1 US device. The zone targeted by the skull implanted SC1 US emitter was modeled with a cylindrical region of interest (ROI) with a 10-mm diameter and 55-mm length. This ROI covered a part of the left-hemisphere tumoral mass and a part of its margin. The patient received administration every three weeks of 1 mg/kg of nivolumab (Brystol Myers Squibb) during 30 minutes of infusion and 3 mg/kg of ipilimumab (Brystol Myers Squibb) during 90 minutes of infusion prior to sonication. The SC1 US device was activated in combination with IV injection of microbubbles (0.1 mL/kg, SonoVue, Bracco) for a duration of 270 seconds at an acoustic pressure of 0.78 MPa, similar to the parameters used in a recent clinical trial in patients with recurrent GBM (Idbaih, A., et al., Clin Cancer Res 25, 3793-3801 (2019)). The evolution of the tumor volumes was evaluated for both sonicated and non-sonicated tumor masses using a semiautomatic active contour segmentation method (ITK Snap) (Yushkevich, P. A., et al., Neuroimage 31, 1116-1128 (2006)) using contrast-enhanced gadolinium T1w MR images with a threshold set at 1.25 times the median brain intensity. […]
substance,measurement,setting,value
nivolumab: human IgG4 antibody that binds the PD-1 receptor,nivolumab concentration in the plasma,[1],similar
pembrolizumab: anti-PD-1 antibody,"fold increase in pembrolizumab concentration, sonicated vs non-sonicated peritumoral brain regions","[2]; 2 GBM patients, SonoCloud-9",2.076 fold
same,anti-PD-1 antibody concentration in the serum,"[2]; two GBM patients, 48 hours after treatment",39.450 µg/mL and 45.099 µg/mL
"ipilimumab: IgG1 anti-CTLA-4 antibody, given with nivolumab",tumor mass targeted by the SonoCloud-1 (sonicated),[3]; ipilimumab 3 mg/kg and nivolumab 1 mg/kg prior to sonication,began to shrink after the second sonication
same,non-sonicated tumor mass,"[3]; ipilimumab 3 mg/kg and nivolumab 1 mg/kg, until GammaKnife on day 130",continued to grow
